T1: biotinylated human CD25 (human, UniProt P01589 22-213, limits assumed, biotinylated)
T1 construct: Captured on a streptavidin-coated chip; also called biotinylated hCD25
T1 sequence (looked up): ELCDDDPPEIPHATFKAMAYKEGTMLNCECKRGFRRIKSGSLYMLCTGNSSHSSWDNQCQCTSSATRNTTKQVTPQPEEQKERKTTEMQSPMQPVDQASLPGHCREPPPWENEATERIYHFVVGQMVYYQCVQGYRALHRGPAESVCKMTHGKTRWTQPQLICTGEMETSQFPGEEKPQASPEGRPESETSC

T2: Fc-tagged CD122 (extracellular domain) (human, UniProt P14784 27-240)
T2 construct: extracellular domain; Captured on an anti-human Fc chip; also called Fc tagged hCD122; not shown: Fc tag
T2 sequence (looked up): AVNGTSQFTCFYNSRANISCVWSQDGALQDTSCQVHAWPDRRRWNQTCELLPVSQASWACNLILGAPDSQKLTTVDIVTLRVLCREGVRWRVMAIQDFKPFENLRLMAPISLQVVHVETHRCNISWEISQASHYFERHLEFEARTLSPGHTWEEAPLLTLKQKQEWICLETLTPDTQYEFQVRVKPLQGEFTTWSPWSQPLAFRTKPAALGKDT

T3: Mouse IL-2 (mouse, UniProt P04351 21-169)
T3 construct: Soluble analyte in SPR; also called mIL-2
T3 sequence (looked up): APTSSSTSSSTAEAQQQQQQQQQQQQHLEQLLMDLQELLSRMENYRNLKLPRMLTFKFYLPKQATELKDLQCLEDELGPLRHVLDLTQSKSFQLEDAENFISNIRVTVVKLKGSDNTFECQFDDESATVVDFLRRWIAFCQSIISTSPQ

B1: human CD25 (soluble) (receptor, UniProt P01589 22-213, looked up)
chain: T1 sequence (looked up)
notes: Injected as soluble analyte at 1000 nM / 1 uM; also called hCD25; IL-2Rα
B2: BDG17.069 (AU-007) (antibody, human IgG1, kappa, L234A L235A, V domains shown)
VH: QVQLVQSGAEVKKPGSSVKVSCKASGYSITDDLIHWVRQAPGQGLEWMGWIDPEDGETNYAQKFQGRVTLTADTSTSTAYMELSSLRSEDTAVYYCARSLDSTWIYPFAYWGQGTLVTVSS
VL: DIVMTQSPDSLAVSLGERATINCKSSQSLLRRGNQKNHLAWYQQKPGQPPKLLIYDASTGQSGVPDRFSGSGSGTDFTLTISSLQAEDVAVYYCLQSYITPPTFGAGTKVEIKR
notes: Human IgG1-LALA

What was measured:
BDG17.054/hIL-2 complex = biological target: T4, BDG17.054/hIL-2 complex (human, UniProt P60568 21-153); assay: SPR, antibody captured on CM5 chip and loaded with hIL-2; 1000 nM CD25 injected before CD122 (first set) and after CD122 (second set)
T4 construct: Captured humanized IgG1 saturated with 50 nM hIL-2 on the SPR chip; also called humanized IgG-hIL-2 complex
Procedure: (§1) Subsequently, running buffer was injected for 60 seconds to reach a steady baseline, and then 1000 nM of CD122 was injected for 30 seconds at a flow rate of 30 ul/min. To test CD122 binding, the same experiment was repeated in reverse order, with CD122 injected first flowed by injection of CD25.

BDG17.043/hIL-2 complex = biological target: T5, BDG17.043/hIL-2 complex (human, UniProt P60568 21-153); assay: SPR, antibody captured on CM5 chip and loaded with 50 nM hIL-2; 1000 nM CD25 injected before CD122
T5 construct: Captured humanized IgG1 saturated with 50 nM hIL-2 on the SPR chip; also called humanized IgG-hIL-2 complex

[1] = biological target: T6, BDG17.069 (AU-007)/hIL-2 complex (human, UniProt P60568 21-153); assay: SPR, AU-007 captured on CM5 chip and loaded with 10nM hIL-2; 1000nM hCD25 injected before hCD122 (1st set) and after hCD122 (2nd set)
T6 construct: On the SPR chip: captured AU-007 saturated with 50 nM hIL-2; In the HEK reporter assay: hIL-2 titrated in the presence of 200 nM AU-007; also called IL2+AU-007; A/IL-2

BDG17.053/hIL-2 complex = biological target: T7, BDG17.053/hIL-2 complex (human, UniProt P60568 21-153); assay: SPR, captured antibody saturated with hIL-2, CD25 injected
T7 construct: Captured humanized IgG1 saturated with 50 nM hIL-2 on the SPR chip; also called humanized IgG-hIL-2 complex

BDG17.038/hIL-2 complex = biological target: T8, BDG17.038/hIL-2 complex (human, UniProt P60568 21-153); assay: SPR, antibody captured on CM5 chip and loaded with 50 nM hIL-2; 1000 nM CD25 injected before CD122
T8 construct: Captured humanized IgG1 saturated with 50 nM hIL-2 on the SPR chip; also called humanized IgG-hIL-2 complex
Procedure: as §1

biotinylated human CD25 = biological target: T1, biotinylated human CD25; assay: SPR, biotinylated hCD25 on the chip, soluble hCD25 injected as a control
BDG17.023-hIL-2 complex = biological target: T9, BDG17.023-hIL-2 complex (human, UniProt P60568 21-153); assay: SPR, BDG17.023 on CM5 chip saturated with 50 nM hIL-2; 1000 nM CD25 injected after CD122
T9 construct: Non-covalent complex made on the SPR chip: immobilized BDG17.023 IgG1 saturated with 50 nM hIL-2; also called BDG17.023-IL-2 complex

[2] = biological target: T2, Fc-tagged CD122 (extracellular domain); assay: SPR, Fc tagged hCD122 captured on a CM5 chip, soluble hCD25 injected
Procedure: Affinity and epitope binding site was assessed using Surface Plasmon Resonance (SPR). […] […] […] Diagrams represent SPR sensorgram traces of complex formation of IL-2R/Cytokine.

Human IL-2 [3] = biological target: T10, Human IL-2 (human, UniProt P60568 21-153); assay: SPR, multi-cycle, antibody captured, hIL-2 analyte
T10 construct: Soluble analyte in the SPR experiments; also called hIL-2; recombinant human IL-2
From the text: (§2) The SPR analysis was done on Biacore […] (GE healthcare, USA) on CM5 chips (cat:br10005-30, GE healthcare, USA). The chip was crosslinked with primary capture Ab against human IgG (Cat: br-1008-39, GE healthcare, USA) or primary capture antibody against mouse IgG (Cat: BR-1008-38, GE healthcare, USA) to a target of 8000RU. After cross-linking of the primary Ab, the mouse and human tested antibodies were immobilized on the primary Ab to a target of approximately additional 500RU. […] At the end of each cycle the analyte and tested antibody were stripped from the chip using 3M MgCl₂ and new tested Ab was loaded on the chip as described above. When indicated, instead of stripping the antibodies, kinetics was determined by injecting series of analyte concentrations in one cycle by the Single-cycle kinetics method. Binding kinetics were determined by the 1:1 Binding model using the Biacore T200 evaluation software.

cynomolgus monkey IL-2 = biological target: T11, cynomolgus monkey IL-2 (cynomolgus monkey, UniProt Q29615 21-154); assay: SPR, multi-cycle, antibody captured, cynomolgus IL-2 analyte
T11 construct: also called cIL-2
From the text: as §2

Human IL-2 [4] = biological target: T10, Human IL-2; assay: SPR (Biacore T200), AU-007 captured on a CM5 chip, h-IL2 as analyte at 0.0625-10 nM, multi-cycle, 1:1 binding model
Procedure: Affinity and epitope binding site was assessed using Surface Plasmon Resonance (SPR). […] Subsequently, soluble hCD25 was injected followed by the injection of soluble hCD122. […] Diagrams represent SPR sensorgram traces of complex formation of IL-2R/Cytokine.
The chip was crosslinked with a human antibody capture kit (BR100839, GE Healthcare, USA) according to the manufacturer's protocol to target 3000-4000 RU. […] Between each cycle, all channels underwent regeneration using 3M MgCl₂. Binding kinetics were determined by the 1:1 Binding model using the Biacore […] evaluation software, version 3.1.

Human IL-2 [5] = biological target: T10, Human IL-2; assay: cell-based or functional assay
Mouse IL-2 = biological target: T3, Mouse IL-2; assay: no assay described; stated in the methods of the LL/2 tumor model

T10 sequence (P60568 21-153 limits assumed): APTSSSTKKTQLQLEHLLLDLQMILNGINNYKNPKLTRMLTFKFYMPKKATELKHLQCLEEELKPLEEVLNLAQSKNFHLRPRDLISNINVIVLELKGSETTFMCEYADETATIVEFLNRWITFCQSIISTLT
T11 sequence (Q29615 21-154 limits assumed): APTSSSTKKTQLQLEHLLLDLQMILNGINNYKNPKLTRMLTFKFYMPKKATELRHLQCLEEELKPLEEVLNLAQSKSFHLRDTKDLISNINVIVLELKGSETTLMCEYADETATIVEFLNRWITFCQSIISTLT
T5 sequence (P60568 21-153 limits assumed, one chain of several): as the sequence (P60568 21-153 limits assumed) above
T4 sequence (P60568 21-153 limits assumed, one chain of several): as the sequence (P60568 21-153 limits assumed) above
T6 sequence (P60568 21-153 limits assumed, one chain of several): as the sequence (P60568 21-153 limits assumed) above
T8 sequence (P60568 21-153 limits assumed, one chain of several): as the sequence (P60568 21-153 limits assumed) above
T9 sequence (P60568 21-153 limits assumed, one chain of several): as the sequence (P60568 21-153 limits assumed) above
T7 sequence (P60568 21-153 limits assumed, one chain of several): as the sequence (P60568 21-153 limits assumed) above

Binder	binding result (BDG17.054/hIL-2 complex)	binding result (BDG17.043/hIL-2 complex)	binding result [1]	binding result (BDG17.053/hIL-2 complex)	binding result (BDG17.038/hIL-2 complex)	binding result (biotinylated human CD25)	binding result (BDG17.023-hIL-2 complex)	binding result [2]	Kd (Human IL-2 [3]) [pM]	koff (Human IL-2 [3]) [s⁻¹]	kon (Human IL-2 [3]) [M⁻¹ s⁻¹]	Kd (cynomolgus monkey IL-2) [pM]	koff (cynomolgus monkey IL-2) [s⁻¹]	kon (cynomolgus monkey IL-2) [M⁻¹ s⁻¹]	Kd (Human IL-2 [4]) [pM]	koff (Human IL-2 [4]) [s⁻¹]	kon (Human IL-2 [4]) [M⁻¹ s⁻¹]	IC50 (read off the curve) (%pSTAT5 in CD4+ Tregs of hPBMC stimulated with hIL-2) (Human IL-2 [5]) [pM]	binding result (Mouse IL-2)
B1	no binding (tested: 1000 nM)	no binding (tested: 1000 nM)	no binding (tested: 1000 nM)	no binding (tested: 1000 nM)	no binding (tested: 1000 nM)	no binding (tested: 1 uM)	no binding (tested: 1000 nM)	no binding (tested: 1 uM)											
B2									10.8	0.000487	4.5e+07	11.7	0.000584	4.98e+07	10.8	0.000487	4.5e+07	~1000	no binding

Reference: patent publication US20240287169A1 (AULOS BIOSCIENCE, published 2024)
